Changes are numbered by the printed parent chain.
Assays:
GIPR A185V (human) = molecular target: T1, GIPR A185V (human) (UniProt P48546)
T1 sequence: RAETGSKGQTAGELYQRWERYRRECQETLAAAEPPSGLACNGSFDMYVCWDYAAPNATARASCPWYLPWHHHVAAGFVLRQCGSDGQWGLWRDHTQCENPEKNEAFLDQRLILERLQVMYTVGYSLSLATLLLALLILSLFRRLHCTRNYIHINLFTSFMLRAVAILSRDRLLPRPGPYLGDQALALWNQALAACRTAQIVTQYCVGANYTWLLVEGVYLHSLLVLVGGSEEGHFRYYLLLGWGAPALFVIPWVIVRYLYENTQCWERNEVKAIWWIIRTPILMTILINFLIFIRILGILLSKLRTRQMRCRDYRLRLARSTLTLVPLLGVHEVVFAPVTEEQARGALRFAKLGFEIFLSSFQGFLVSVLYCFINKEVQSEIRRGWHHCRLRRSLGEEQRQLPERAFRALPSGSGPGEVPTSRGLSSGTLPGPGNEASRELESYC

GIPR E418K (human) = molecular target: T2, GIPR E418K (human) (UniProt P48546)
T2 sequence: T1 sequence with V164A, E397K

GIPR I299V (human) = molecular target: T3, GIPR I299V (human) (UniProt P48546)
T3 sequence: T1 sequence with V164A, I278V

GIPR M67R (human) = molecular target: T4, GIPR M67R (human) (UniProt P48546)
T4 sequence: T1 sequence with M46R, V164A

GIPR R43G (human) = molecular target: T5, GIPR R43G (human) (UniProt P48546)
T5 sequence: T1 sequence with R22G, V164A

GIPR T116R (human) = molecular target: T6, GIPR T116R (human) (UniProt P48546)
T6 sequence: T1 sequence with T95R, V164A

“β-arrestin 2 (Rluc8-Arrestin-3-Sp1) (from UniProt P32121 1-409) (natural protein)” gave a β-arrestin 2 recruitment (BRET) on stimulation with GIP(1-42): logEC50 (Arrestin) (log M (inferred)) (GIPR A185V (human)) of -8.96, a β-arrestin 2 recruitment (BRET) on stimulation with GIP(1-42): logEC50 (Arrestin) (log M (inferred)) (GIPR E418K (human)) of -9.19 and a β-arrestin 2 recruitment (BRET) on stimulation with GIP(1-42): logEC50 (Arrestin) (log M (inferred)) (GIPR I299V (human)) of -9.01. It also gave a β-arrestin 2 recruitment (BRET) on stimulation with GIP(1-42): logEC50 (Arrestin) (log M (inferred)) (GIPR M67R (human)) of -8.16, a β-arrestin 2 recruitment (BRET) on stimulation with GIP(1-42): logEC50 (Arrestin) (log M (inferred)) (GIPR R43G (human)) of -9.1 and a β-arrestin 2 recruitment (BRET) on stimulation with GIP(1-42): logEC50 (Arrestin) (log M (inferred)) (GIPR T116R (human)) of -8.71.
